Results from publication PMC11673000 (2024).

B1: FAT10 wild type (His-3xFLAG-FAT10) [not stated] / NEDD8 ultimate buster-1 long (NUB1L) [not stated] (parent complex)
chain 1: MAPNASCLCVHVRSEEWDLMTFDANPYDSVKKIKEHVRSKTKVPVQDQVLLLGSKILKPRRSLSSYGIDKEKTIHLTLKVVKPSDEELPLFLVESGDEAKRHLLQVRRSSSVAQVKAMIETKTGIIPETQIVTCNGKRLEDGKMMADYGIRKGNLLFLACYCIGG
chain 2: MAQKKYLQAKLTQFLREDRIQLWKPPYTDENKKVGLALKDLAKQYSDRLECCENEVEKVIEEIRCKAIERGTGNDNYRTTGIATIEVFLPPRLKKDRKNLLETRLHITGRELRSKIAETFGLQENYIKIVINKKQLQLGKTLEEQGVAHNVKAMVLELKQSEEDARKNFQLEEEEQNEAKLKEKQIQRTKRGLEILAKRAAETVVDPEMTPYLDIANQTGRSIRIPPSERKALMLAMGYHEKGRAFLKRKEYGIALPCLLDADKYFCECCRELLDTVDNYAVLQLDIVWCYFRLEQLECLDDAEKKLNLAQKCFKNCYGENHQRLVHIKGNCGKEKVLFLRLYLLQGIRNYHSGNDVEAYEYLNKARQLFKELYIDPSKVDNLLQLGFTAQEARLGLRACDGNVDHAATHITNRREELAQIRKEEKEKKRRRLENIRFLKGMGYSTHAAQQVLHAASGNLDEALKILLSNPQMWWLNDSNPETDNRQESPSQENIDRLVYMGFDALVAEAALRVFRGNVQLAAQTLAHNGGSLPPELPLSPEDSLSPPATSPSDSAGTSSASTDEDMETEAVNEILEDIPEHEEDYLDSTLEDEEIIIAEYLSYVENRKSATKKN

Variants of: B1
Test: HA-immunoprecipitation, SDS-PAGE and immunoblot (ECL quantification); HEK293T cells transiently co-transfected with HA-NUB1L and FLAG-FAT10; three independent experiments; parent: 4; read off a plot

response	Variant
~3.4 IP [FAT10] / Load [FAT10], FAT10 D = 1	chain 1 MAPNASCLCVHVRSEEWDLMTFDANPYDSVKKIKEHVRSKTKVPVQDQVLLLGSKILKPRRDLSSYGIDKEKTIHLTLKVVKPSDEELPLFLVESGDEAKRHLLQVRRSSSVAQVKAMIETKTGIIPETQIVTCNGKRLEDGKMMADYGIRKGNLLFLACYCIGG [chain 1 S62D]
~2.6 IP [FAT10] / Load [FAT10], FAT10 D = 1	chain 1 MAPNASCLCVHVRSEEWDLMTFDANPYDSVKKIKEHVRSKTKVPVQDQVLLLGSKILKPRRSLSSYGIDKEKTIHLTLKVVKPSDEELPLFLVEDGDEAKRHLLQVRRSSSVAQVKAMIETKTGIIPETQIVTCNGKRLEDGKMMADYGIRKGNLLFLACYCIGG [chain 1 S95D]
~3 IP [FAT10] / Load [FAT10], FAT10 D = 1	chain 1 MAPNASCLCVHVRSEEWDLMTFDANPYDSVKKIKEHVRSKTKVPVQDQVLLLGSKILKPRRSLSSYGIDKEKTIHLTLKVVKPSDEELPLFLVESGDEAKRHLLQVRRDSSVAQVKAMIETKTGIIPETQIVTCNGKRLEDGKMMADYGIRKGNLLFLACYCIGG [chain 1 S109D]
~0.95 IP [FAT10] / Load [FAT10], FAT10 D = 1	chain 1 MAPNASCLCVHVRSEEWDLMTFDANPYDSVKKIKEHVRSKTKVPVQDQVLLLGSKILKPRRSLSSYGIDKEKTIHLELKVVKPSDEELPLFLVESGDEAKRHLLQVRRSSSVAQVKAMIETKTGIIPETQIVTCNGKRLEDGKMMADYGIRKGNLLFLACYCIGG [chain 1 T77E]
~2.6 IP [FAT10] / Load [FAT10], FAT10 D = 1	chain 1 MAPNASCLCVHVRSEEWDLMTFDANPYDSVKKIKEHVRSKTKVPVQDQVLLLGSKILKPRRSLDSYGIDKEKTIHLTLKVVKPSDEELPLFLVESGDEAKRHLLQVRRSSSVAQVKAMIETKTGIIPETQIVTCNGKRLEDGKMMADYGIRKGNLLFLACYCIGG [chain 1 S64D]

Variants of: B1
Test: HA-immunoprecipitation, SDS-PAGE and immunoblot (ECL quantification); HEK293T cells transiently co-transfected with HA-NUB1L and FLAG-FAT10; three independent experiments; parent: 4.3; read off a plot

response	Variant
~1.9 IP [FAT10] / Load [FAT10], FAT10 D = 1	chain 1 MAPNASCLCVHVRSEEWDLMTFDANPYDSVKKIKEHVRSKTKVPVQDQVLLLGSKILKPRRDLDSYGIDKEKTIHLELKVVKPSDEELPLFLVESGDEAKRHLLQVRRSSSVAQVKAMIETKTGIIPETQIVTCNGKRLEDGKMMADYGIRKGNLLFLACYCIGG [chain 1 S62D, chain 1 S64D, chain 1 T77E]
~7.7 IP [FAT10] / Load [FAT10], FAT10 D = 1	chain 1 MAPNASCLCVHVRSEEWDLMTFDANPYDSVKKIKEHVRSKTKVPVQDQVLLLGSKILKPRRDLDSYGIDKEKTIHLTLKVVKPSDEELPLFLVEDGDEAKRHLLQVRRDSSVAQVKAMIETKTGIIPETQIVTCNGKRLEDGKMMADYGIRKGNLLFLACYCIGG [chain 1 S62D, chain 1 S64D, chain 1 S95D, chain 1 S109D]
~2.5 IP [FAT10] / Load [FAT10], FAT10 D = 1	chain 1 MAPNASCLCVHVRSEEWDLMTFDANPYDSVKKIKEHVRSKTKVPVQDQVLLLGSKILKPRRSLDSYGIDKEKTIHLELKVVKPSDEELPLFLVESGDEAKRHLLQVRRSSSVAQVKAMIETKTGIIPETQIVTCNGKRLEDGKMMADYGIRKGNLLFLACYCIGG [chain 1 S64D, chain 1 T77E]
~2.8 IP [FAT10] / Load [FAT10], FAT10 D = 1	chain 1 MAPNASCLCVHVRSEEWDLMTFDANPYDSVKKIKEHVRSKTKVPVQDQVLLLGSKILKPRRDLSSYGIDKEKTIHLELKVVKPSDEELPLFLVESGDEAKRHLLQVRRSSSVAQVKAMIETKTGIIPETQIVTCNGKRLEDGKMMADYGIRKGNLLFLACYCIGG [chain 1 S62D, chain 1 T77E]
~4.7 IP [FAT10] / Load [FAT10], FAT10 D = 1	chain 1 MAPNASCLCVHVRSEEWDLMTFDANPYDSVKKIKEHVRSKTKVPVQDQVLLLGSKILKPRRDLDSYGIDKEKTIHLTLKVVKPSDEELPLFLVESGDEAKRHLLQVRRSSSVAQVKAMIETKTGIIPETQIVTCNGKRLEDGKMMADYGIRKGNLLFLACYCIGG [chain 1 S62D, chain 1 S64D]
~1.8 IP [FAT10] / Load [FAT10], FAT10 D = 1	chain 1 MAPNASCLCVHVRSEEWDLMTFDANPYDSVKKIKEHVRSKTKVPVQDQVLLLGSKILKPRRSLSSYGIDKEKTIHLELKVVKPSDEELPLFLVESGDEAKRHLLQVRRSSSVAQVKAMIETKTGIIPETQIVTCNGKRLEDGKMMADYGIRKGNLLFLACYCIGG [chain 1 T77E]

Variants of: B1
Test: HA-immunoprecipitation, SDS-PAGE and immunoblot (ECL quantification); HEK293T cells transiently co-transfected with HA-NUB1L and FLAG-FAT10; three independent experiments; parent: 4

response	Variant
1 IP [FAT10] / Load [FAT10], FAT10 D = 1	chain 1 MAPNASCLCVHVRSEEWDLMTFDANPYDSVKKIKEHVRSKTKVPVQDQVLLLGSKILKPRRDLDSYGIDKEKTIHLELKVVKPSDEELPLFLVEDGDEAKRHLLQVRRDSSVAQVKAMIETKTGIIPETQIVTCNGKRLEDGKMMADYGIRKGNLLFLACYCIGG [chain 1 S62D, chain 1 S64D, chain 1 T77E, chain 1 S95D, chain 1 S109D]

Variants of: B1
Test: HA-immunoprecipitation, SDS-PAGE and immunoblot (ECL quantification); HEK293T cells transiently co-transfected with HA-NUB1L and FLAG-FAT10; three independent experiments; parent: 4.3

response	Variant
1 IP [FAT10] / Load [FAT10], FAT10 D = 1	chain 1 MAPNASCLCVHVRSEEWDLMTFDANPYDSVKKIKEHVRSKTKVPVQDQVLLLGSKILKPRRDLDSYGIDKEKTIHLELKVVKPSDEELPLFLVEDGDEAKRHLLQVRRDSSVAQVKAMIETKTGIIPETQIVTCNGKRLEDGKMMADYGIRKGNLLFLACYCIGG [chain 1 S62D, chain 1 S64D, chain 1 T77E, chain 1 S95D, chain 1 S109D]
